Results reported in patent publication US5559094A (Eli Lilly and Company, priority 1994, dated 1996).

Tests used:
[1] = injection of an acidic solution; cited from earlier work
[2] = Near- and far-UV circular dichroism; type: physicochemical; settings: mean residue ellipticity, variation of 3%
Procedure: Protein stock solutions were prepared by dissolving a known mass of protein in either 20 mM Tris or 50 mM sodium phosphate and 50 mM sodium chloride, pH 7.8, followed by zinc oxide addition to a final concentration of 0.5 mol Zn per mol of protein monomer. The pH of the solution was readjusted to pH 7.8 as needed. The protein stock concentrations were determined by UV absorbance using an AVIV model 14DS double-beam spectrophotometer. […] All circular dichroism measurements were obtained using an AVIV Model 62DS spectrometer (Lakewood, N.J.) with results reported as mean residue ellipticity (MRE) having units of deg.cm^2.dmol^-1.
All samples were measured by far-UV CD at 23° C. using a 0.01 cm CD cell. The signal at 224 nm was recorded as a function of either m-cresol or KSCN concentration.
To further explore secondary structure, the far-UV CD spectra were collected from 250 nm to 200 nm using a 0.01 cm cuvette. To gain insight into the environment of the aromatic and disulfide amino acids the near-UV CD spectra were collected from 350 to 250 nm using a 0.1 cm cell.

[3] = α-Helical analysis (CONTIN analysis from the circular dichroism spectra); type: physicochemical
Description: ^1 Determined by CONTIN analysis from the circular dichroism spectra.

[4] = Equilibrium ultracentrifugation (aggregation state); type: physicochemical; settings: 0.5 mol of Zn per mol of protein; 20 mM Tris pH 7.8; protein 1.5 to 5 mg/ml
Procedure: Equilibrium ultracentrifugation data was collected at 22° C. at equally spaced radial intervals using a Beckman Model XLA analytical ultracentrifuge Fullterton, Calif. Standard 30 mm and 12 mm centerpieces along with custom-made 3 mm centerpieces all made from charcoal-filled epon were used. Raw data from the chart recorder was converted to concentration versus radius using the internal calibration factors of the scanner. The weight average molecular weight was calculated according to the equation:
MW=RT/(1-Vp)ω^2.1r.1/C.dC/dr
where R is the gas constant, T is the temperature, ω is the rotor speed, r is the radius, C is the concentration, .rho. is the solvent density, and assuming ideal solutions. […] Least squares smoothing methods were used to calculate C and dC/dr.

[5] = from NMR / x-ray crystallography literature; cited from earlier work

gln^B13 analog: literature insulin analog with gln at B13 that forms stable hexamers in the absence of Zn
reduction of insulin absorption rate after injection [1]: 25%

Zn + asp^B1 gln^B13 Insulin: asp^B1 gln^B13 insulin sample with Zn
Circular Dichroism, Wavelength 224 nm [2]: -14555 deg.cm^2.dmol^-1 | Circular Dichroism, Wavelength 251 nm [2]: -426 deg.cm^2.dmol^-1 | Circular Dichroism, Wavelength 276 nm [2]: -291 deg.cm^2.dmol^-1 | % Helix Measured [3]: 65%

Zn-Asp^B1 insulin: Asp^B1 insulin containing 0.5 mol of Zn per mol of protein
aggregation state (weight average molecular weight) [4]: hexamer

Zn + m-cresol + Human Insulin: human insulin sample with Zn and m-cresol [reference compound]
Circular Dichroism, Wavelength 224 nm [2]: -13488 deg.cm^2.dmol^-1 | Circular Dichroism, Wavelength 251 nm [2]: -425 deg.cm^2.dmol^-1 | Circular Dichroism, Wavelength 276 nm [2]: -335 deg.cm^2.dmol^-1

Zn + Human Insulin: human insulin sample with Zn [reference compound]
Circular Dichroism, Wavelength 224 nm [2]: -10892 deg.cm^2.dmol^-1 | Circular Dichroism, Wavelength 251 nm [2]: -121 deg.cm^2.dmol^-1 | Circular Dichroism, Wavelength 276 nm [2]: -305 deg.cm^2.dmol^-1 | % Helix Theoretical [5]: 47%

Zn + m-cresol + asp^B1 gln^B13 Insulin: asp^B1 gln^B13 insulin sample with Zn and m-cresol
Circular Dichroism, Wavelength 224 nm [2]: -14092 deg.cm^2.dmol^-1 | Circular Dichroism, Wavelength 251 nm [2]: -431 deg.cm^2.dmol^-1 | Circular Dichroism, Wavelength 276 nm [2]: -384 deg.cm^2.dmol^-1 | % Helix Measured [3]: 64%
